Consider 5 molecules from patent US20250032605A1 (GENERAL HOSPITAL, published 2025).

Where two headings read alike, the source gives them in different places.

Common to all, as to test: BLI with recombinant Fabs, drawn table of KD (µM)
Experiment [1] addresses RaTG13.
The target of experiment [2] is SHC014.
The target of experiment [3] is T1, SARS-2 RBD (wild-type SARS-CoV-2 receptor binding domain, monomer) (SARS-CoV-2, UniProt P0DTC2 319-529).
Experiment [4] deals with T2, SARS-1 RBD (SARS-CoV receptor binding domain, monomer) (SARS-CoV (SARS-1), UniProt P59594 306-515).
Experiment [5] deals with T3, WIV1 RBD (WIV1-CoV receptor binding domain, monomer) (WIV1-CoV).
In experiment [6] the target is RaTG13. This is another data set of the same source.
In experiment [7] the target is SHC014. This is another data set of the same source.
In experiment [8] the target is T2, SARS-1 RBD (SARS-CoV receptor binding …). This is another data set of the same source.
The target of experiment [9] is T3, WIV1 RBD (WIV1-CoV receptor binding …). This is another data set of the same source.
Experiment [10] deals with T1, SARS-2 RBD (wild-type SARS-CoV-2 …). The source holds these as a separate data set.

B1: Ab20 Fab (Fab, V domains shown)
VH: EVQLQQSGPELVKPGASVKISCKASGFSFTGYSMNWMKQSPEKSLEWIGEINPTTGGTTYNQKFKAKATLTVDKSSSTAYIQLKSLTSEDSAVYYCARGRADYWGQGTTLTVSS
VL: DIVLTQSPASLAVSLGQRATISCRASESVEYYGTGLVQWFQQKPGQPPKLLIYAASNVESGVPARFSGSGSGTDFSLNIHSVEEDDIAMYFCHQSRKLPWTFGGGTKLEIK
As to B1, the Kd was greater than 100 µM in the experiment with RaTG13 [1]; greater than 100 µM with SHC014 [2]; 0.03 µM in [3]; greater than 100 µM in experiment [4]; greater than 100 µM in experiment [5]; greater than 100 µM with RaTG13 [6]. Besides, the Kd (with SHC014 [7]; in experiment [8]; in experiment [9]) was greater than 100 µM in each case.

B2: Ab19 Fab (Fab, V domains shown)
VH: QVQLQQSGAELARPGASVKLSCKASGYPFTSYGINWVKQRTGQGLEWIGEIYPRIGNTYYNEKFKGKATLTADKSSSTAYMEFRSLTSEDSAVYFCARSWNSNYGEYYFDYWGQGTTLTVS
VL: DIVMTQSHKFMSTSIGDRVSITCKASHDVSTAVAWYQQKPGQSPKLLIYWASTRHTGVPDRFTGSGSGTDYTLTIRSVQAEDLALYYCQQHYSTPYTFGGGTKLEIK
With B2, the equilibrium dissociation constant (Kd) was greater than 100 µM with RaTG13 [1]; greater than 100 µM with SHC014 [2]; 2 µM in [3]; greater than 100 µM in experiment [4]; greater than 100 µM in [5]; greater than 100 µM with RaTG13 [6]. Moreover, the Kd with SHC014 [7] is greater than 100 µM; in experiment [10], 2 µM; in experiment [8] it was greater than 100 µM; in experiment [9], greater than 100 µM.

B3: Ab15 Fab (Fab, V domains shown)
VH: EVQLQQSGPELVKPGASVKISCKASGYSFTGYYMNWVKQSPEKSLEWIGEINPNFGGTTYNQKFKAKATLTVDKSSSTAYMQLKSLTSEDSAVYYCARYYGNLYAMDYWGQGTSVTVS
VL: DILMTQSPSSMSVSLGDTVSITCHASQGISSNIGWLQQKPGKSFKGLIYHGTNLEDGVPSRFSGSGSGAAYSLTISSLESEDFADYYCVQYTHFPYTFGGGTKLEIK
For the molecule B3, the Kd in the experiment with RaTG13 [1] is 1.2 µM; in [3], 1.1 µM; with RaTG13 [6], 1.2 µM; in [10], 1.1 µM.

B4: Ab16 Fab (Fab, V domains shown)
VH: EVQLQQSGPELVKPGASVKISCKASGYSFNNYYMNWVKQSPEKSLEWIGEINPNSGYTSYNQKFRAKATLTVDKSSTTAYMQLKSLTSEDSAVYYCARYFGNLFAMDFWGQGTSVTVS
VL: DILMTQSPSSMSVSLGDTVSITCHASQGIGSNIGWLQQKPGKSFKGLIYLGTNLEDGVPSRFSGSGSGADYSLTISSLESEDFADYYCVQYVQFPYTFGGGTKLEIK
B4: the Kd with RaTG13 [1] came to 0.2 µM; in the experiment with SHC014 [2], 0.09 µM; in experiment [3], 0.03 µM; in experiment [4], 0.1 µM; in experiment [5], 0.21 µM.

B5: Ab17 Fab (Fab, V domains shown)
VH: EVQLQQSGPELVKPGASVKISCKASGYSFTDYYMNWVKQSPEKSLEWIGEINPNTGGTTYNQKFKAKATLTVDKSSSTAYMQLKSLTSEDSAVYYCARYYGNLYAMDYWGQGTSVTVSS
VL: DILMTQSPSSMSVSLGDTVSITCHASQGISSNIGWLQQKPGKSFKGLIYHGTNLEDGVPSRFSGSGSGADYSLTISSLESEDFADYYCVQYVQFPYTLGGGTKLEIK
As to B5, the dissociation constant (Kd) with RaTG13 [1] is 0.18 µM; in the experiment with SHC014 [2], 0.09 µM; in experiment [3], 0.07 µM; in experiment [4] it was 0.08 µM; in [5], 0.37 µM.

A word on the Kd: it is the equilibrium constant for the complex coming apart.
